Laboratory results: doi:10.1101/2021.03.29.437455

Experiments:
[1] = molecular target: polo-like kinase 1 (PLK1) PBD, 345-603 (UniProt P53350); experiment: isothermal titration calorimetry; conditions: reference: unphosphorylated peptide PNTSSPS; sites S379
[2] = molecular target: PLK1 polo-box domain (PBD), PLK1 residue 345-603 (UniProt P53350); experiment: ITC
[3] = molecular target: GST-EBNA2 446-474 S457A/T465V (Epstein-Barr virus) (UniProt P12978); experiment: pull-down; conditions: remark: other sources report otherwise

Substance: EBNA2 (EBV nuclear antigen 2) (from UniProt P12978) phosphopeptide PNTSpSPS
- KD [1]: 8.19 µM

Substance: EBNA2 phospho-heptapeptide PNTSpSPS
- Kd [2]: 8.19 µM
- stoichiometry N [2]: 1

Substance: histone acetylase and co-activator p300, Q09472 1-2414
- fold change of p300 binding against wt [3]: 8 to 9 fold
